The values below come from US20240052061A1 (published 2024).

The target of experiment [1] is T1, human ecto-nucleoside triphosphate diphosphohydrolase-3 (NTPDase3) (human, UniProt O75355 1-529).
T1 chain: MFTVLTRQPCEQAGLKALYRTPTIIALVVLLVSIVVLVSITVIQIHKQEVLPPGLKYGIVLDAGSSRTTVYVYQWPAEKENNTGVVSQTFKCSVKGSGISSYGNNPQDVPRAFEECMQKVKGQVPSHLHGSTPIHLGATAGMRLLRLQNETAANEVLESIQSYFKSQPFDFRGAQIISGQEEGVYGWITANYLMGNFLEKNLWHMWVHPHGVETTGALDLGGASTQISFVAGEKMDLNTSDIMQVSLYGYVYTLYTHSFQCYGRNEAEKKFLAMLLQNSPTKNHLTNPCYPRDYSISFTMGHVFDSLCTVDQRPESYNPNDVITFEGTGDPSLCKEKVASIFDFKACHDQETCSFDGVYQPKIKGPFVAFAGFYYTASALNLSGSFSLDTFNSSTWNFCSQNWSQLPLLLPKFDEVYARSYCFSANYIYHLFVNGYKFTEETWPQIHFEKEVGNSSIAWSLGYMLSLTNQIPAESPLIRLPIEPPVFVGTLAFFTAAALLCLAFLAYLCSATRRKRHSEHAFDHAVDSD
The experiment in a line: flow cytometry; RT4 cells.

The target in experiment [2] is T1, human ecto-nucleoside triphosphate …. The experiment in a line: flow cytometry; CHO-hENTPD3 cells. For orientation: In flow cytometry, cells or beads pass a laser one at a time.
For experiment [3] the target is unchanged. The experiment in a line: flow cytometry; COS7-hENTPD3 cells.
Experiment [4] shares this target. The experiment in a line: flow cytometry; HEK293T-hENTPD3 cells.
For experiment [5] the target is unchanged. The experiment in a line: flow cytometry; CHO-hENTPD3 cells.
The target is the same in experiment [6]. The experiment in a line: flow cytometry; COS7-hENTPD3 cells.
For experiment [7] the target is unchanged. The experiment in a line: flow cytometry; CHO-hENTPD3 cells, 20 min at 4°C.
The target is the same in experiment [8]. The experiment in a line: flow cytometry; CHO-hENTPD3 cells.
Experiment [9] has the same target. The experiment in a line: flow cytometry; CHO-hENTPD3 cells.
Experiment [10] has the same target. The experiment in a line: flow cytometry; COS7-hENTPD3 cells.
For experiment [11] the target is unchanged. The experiment in a line: flow cytometry; COS7-hENTPD3 cells.
For experiment [12] the target is unchanged. The experiment in a line: flow cytometry; HEK293T-hENTPD3 cells.

As usually defined, the Kd is a measure of binding affinity in units of concentration. Read a low Kd as a tighter complex.

Positions count from the first letter of the chain named. In names and notes the source's numbering stands.

B1: 37H1 Hu/Ra (antibody, V domains shown)
VH: QSVEESGGRLVTPGTPLTLTCTVSGFSLSSYAVGWVRQAPGKGLEFIGIITYNGATYYASWAEGRFPISKTSSTTVDLKMTSPTTEDTATYFCARARYGGYSTNSYYLNIWGPGTLVTVSS
VL: DVVMTQTPASVSAAVGGTVTINCQASENIYRILAWYQQKPGQRPKLLIYGASNLETGVPSRFKGSGSGTEYTLTISDLECDDAATYYCQGVLWNSNDSTFGGGTEVVVKG
Turning to B1, the Kd came out at 0.16 nM in [1], 2.26 nM in experiment [2], 0.54 nM in experiment [3] and 1.4 nM in experiment [4].

B2: 16D4 Hu/Ra (antibody, V domains shown)
VH: B1 VH with V33M, A55G, E63K
VL: B1 VL with I32V, W93Y, N94D, S95N
In the case of B2, the Kd is 0.2 nM in experiment [1], 1.94 nM in experiment [2], 0.8 nM in experiment [3] and 0.38 nM in [4].

B3: 4F9 Hu/Ra (antibody, V domains shown)
VH: B1 VH with V33M, A55N, E63K
VL: B1 VL with W93Y
As for B3, the dissociation constant Kd in experiment [1] turned out to be 0.19 nM; in [2], 1.52 nM; in experiment [3], 0.45 nM; in experiment [4], 0.46 nM.

B4: 42D8 Hu/Ra (antibody, V domains shown)
VH: B1 VH with V33M, G54S, A55N, S60N, E63K
VL: B1 VL with R43P, W93Y
As to B4, the Kd in experiment [2] stood at 1.96 nM; in experiment [3], 0.64 nM; in [4] it was 0.55 nM.

B5: 38D12 Hu/Ra (antibody, V domains shown)
VH: QSVEESGGRLVTPGTPLTLTCTVSGFSLSSYVINWVRQAPGKGLEWIGTISSSGSTYYASWAKGRFTISTTSSTTVDLKITSPTTEDTATYFCARGADGAFISDYFNIWGPGTLVTVSS
VL: DIVMTQTPSSVSAAVGGTVTIKCQANENIDSWLAWYQQKPGQRPKLLIYYASTLASGVPSRFKGSGSGTEYTLTISDLECADGATYYCQSYDTISDYGVGFGGGTEVVVKG
B5: the Kd in experiment [1] is 2.63 nM; in experiment [2] it was 8.3 nM; in experiment [3], 2.8 nM; in [4] it was 3.06 nM.

B6: 3E9 Hu/Ra (antibody, V domains shown)
VH: QSLEESGGDLVKPGASLTLTCTASGFSFSSSDWICWVRQAPGKGLEWIACIYAGSIGGAYFASWVNGRFTISRASSTTVTLQMTSLTAADTATYFCARSSSNGRLKLDQFDLWGPGTLVTVSS
VL: AYDMTQTPASVEVAVGGTVTINCQASQSIGGWLSWYRQKPGQPPSLLIYKASTLASGVSSRFSGTGSRTHFTLTINGVQCADAATYYCQQGSAADVANTFGGGTEVVVKG
Regarding B6, the dissociation constant (Kd) in experiment [2] was determined as 1.94 nM; in [3], 0.63 nM; in [4] it was 1.79 nM.

B7: 44H5 Hu/Ra (antibody, V domains shown)
VH: QEQLEESGGDLVKPEGSLTLTCTASGFDSSSTYYMCWVRQAPGKGLEWSGCIYTGGLTYYASWAKGRFTISKTSSTTVTLQMTSLTAADTATYFCASYIGSRFYMPGFSLWGPGTLVTVSS
VL: AIVMTQTPSSKSVPVGDTVTINCQASESIYSNNRLAWFQQKPGQPPKLLIYLASTLASGVPSRFKGSGSGTQFTLTISDVVCDDAATYYCAGYKGSSTDGTAFGGGTEVVVKG
B7: the equilibrium dissociation constant (Kd) in experiment [1] amounted to 1.15 nM; in experiment [2] it was 0.95 nM; in [3] it was 0.3 nM; in [4], 0.15 nM.

B8: PBI #30af8 hIgG1 (antibody, V domains shown)
VH: QVQLQESGGGLIQPGGSLRLSCAASGFQSDSSDYAMSWVRQAPGKGLEWVSSISGTGGSTYYADSVKGRFTISRDNSKNTLYVQMTSLTAEDTAVYYCAKVVGFSTYDYYYHYALDVWGQGTTVTVSS
VL: QPVLTQPPSASGTPGQRVTISCSGSSSNIGSNTVNWYQQLPGTAPKLLIYSDDQRPSGVPDRFSGSKSGTSASLTISGLKTEDEAGYYCQSYDTSNVVFGGGTKVTVL
B8: the Kd is 1.8 nM in experiment [5] and 1.26 nM in experiment [6].

B9: PBI #30af6 hIgG4 (antibody, V domains shown)
VH: B8 VH with Q28T, D30S, T56S, V102F, F104Y, T106M
VL: B8 VL with V18I, D52N, D53N, Y92D
In the case of B9, the Kd is 2.18 nM in experiment [5] and 1.58 nM in experiment [6].

B10: PBI #30af4 hIgG4 (antibody, V domains shown)
VH: B8 VH with Q28T, D30S, T56S, G58V, F104Y, T106V
VL: B8 VL with D53N, Y92D
In the case of B10, the Kd in experiment [5] was 1.82 nM; in experiment [6], 1.28 nM.

B11: PBI #30af4 hIgG1 (antibody, V domains shown)
VH: B8 VH with Q28T, D30S, T56S, G58V, F104Y, T106V
VL: B8 VL with D53N, Y92D
Turning to B11, the dissociation constant (Kd) in experiment [5] was found to be 1.62 nM; in experiment [6], 1.26 nM.

B12: PBI #30af7 hIgG1 (antibody, V domains shown)
VH: B8 VH with Q28T, S29T, D30S, T56S, V101D, F104Y
VL: B8 VL with I29V, D52N, D53N
As for B12, the dissociation constant (Kd) in [5] worked out at 1.87 nM; in [6] it was 1.68 nM.

B13: PBI #30 hIgG1 (antibody, V domains shown)
VH: B8 VH with Q28T, D30S, T56S, F104Y, T106M
VL: QPVLTQPPSASGTPGQRVTISCSGSSSNIGSNTVNWYQQLPGTAPKLLIYSNNQRPSGVPDRFSGSKSGTSASLTISGLKTEDEAGYYCQSYDTSNVVFGGGTKVTVLG
Regarding B13, the dissociation constant Kd was found to be 1.64 nM in [5] and 20.9 nM in experiment [7].

B14: PBI #30af6 hIgG1 (antibody, V domains shown)
VH: B8 VH with Q28T, D30S, T56S, V102F, F104Y, T106M
VL: B8 VL with V18I, D52N, D53N, Y92D
For the molecule B14, the values for the Kd in experiment [5] and in [6] were 1.85 nM and 1.63 nM, respectively.

B15: PBI #30af8 hIgG4 (antibody, V domains shown)
VH: B8 VH
VL: B8 VL
Regarding B15, the dissociation constant (Kd) in [5] turned out to be 1.9 nM; in [6], 1.43 nM.

B16: PBI #30af7 hIgG4 (antibody, V domains shown)
VH: B8 VH with Q28T, S29T, D30S, T56S, V101D, F104Y
VL: B8 VL with I29V, D52N, D53N
On to B16, for which the results for the Kd in [5] and in experiment [6] were 2.61 nM and 2.83 nM, respectively.

B17: 38D5 hIgG1 (antibody, V domains shown)
VH: EQQLLESGGGLVQPGGSLRLSCAASGIDFNNYGISWVRQAPGKGLEWIAYKYPGFGIRNYANSVKGRFTISSDNSKNTVYLQMNSLRAEDTAVYFCARGARYRHDDYGALNLWGPGTLVTVSS
VL: DIQMTQSPSTLSASVGDRVTITCQASQSVTNLLAWYQQKPGKPPKLLIYGASNLESGVPSRFSGSGSGTEFTLTISSLQPDDFATYYCQSGYYSANTFGPGTKVDIK
Take B17: the dissociation constant (Kd) amounted to 0.56 nM in experiment [8]; 0.89 nM in experiment [9]; 0.52 nM in experiment [10]; 0.56 nM in experiment [11]; 4.34 nM in [12].

B18: humanized 38D5 hIgG1 variant LC.1 (P43A) (antibody, V domains shown)
VH: B17 VH
VL: B17 VL with P43A
As for B18, the Kd in experiment [9] worked out at 1.5 nM; in experiment [10] it was 0.85 nM.
